T1: CD300c抗原(11832-H08H、Sino Biological) (UniProt Q08708)
T1 sequence (looked up): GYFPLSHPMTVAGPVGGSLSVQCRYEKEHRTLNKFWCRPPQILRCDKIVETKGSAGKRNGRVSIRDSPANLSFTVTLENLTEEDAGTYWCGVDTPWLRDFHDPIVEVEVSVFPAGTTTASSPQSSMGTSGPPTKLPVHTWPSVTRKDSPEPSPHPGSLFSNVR

B1: 抗-CD300cモノクローナル抗体 CK3 (antibody, from another filing, V domains shown)
VH: RVQLLESGGGLVQPGGSLRLSCAASGFTFSSYAISWVRQAPGKGLEWVSATSGSGRATYYADSVKGRFTISRDNSKNTLYLQMNSLRAEDTAVYYCARDTWWEGYFDLWGQGTLVTVSS
VL: EIVLTQSPGTLSLSPGERATLSCQASHISTHLNWYQQKPGQAPRLLIYGASSRATGIPDRFSGSGSGTDFTLTISRLEPEDFAVYYCQQYNTYPPTFGQGTKVEIK
B2: 抗-CD300cモノクローナル抗体 SK15 (antibody, from another filing, V domains shown)
VH: RVQLLESGGGLVQPGGSLRLSCAASGFTFSSYAMHWVRQAPGKGLEWVSAINGSGGSTYYADSVKGRFTISRDNSKNTLYLQTNSLRAEDTAVYYCARGLQGFDYWGQGTLVTVSS
VL: EIVLTQSPGTLSLSPGERATLSCQASQDITNYLNWYQQKPGQAPRLLIYDASSLETGIPDRFSGSGSGTDFTLTISRLEPEDFAVYYCQQSYSTPITFGQGTKVEIK
B3: 抗-CD300cモノクローナル抗体 SK16 (antibody, from another filing, V domains shown)
VH: RVQLLESGGGLVQPGGSLRLSCAASGFTFSSYAMSWVRQAPGKGLEWVSAINGSGGSTLYADSVKGRFTISRDNSKNTLYLQMNSLRAEDTAVYYCARGVSGFDSWGQGTLVTVSS
VL: EIVLTQSPGTLSLSPGERATLSCRISQSISSYLNWYQQKPGQAPRLLIYDASLRATGIPDRFSGSGSGTDFTLTISRLEPEDFAVYYCQQSYKTPITFGQGTKVEIK

Each binder was assayed against T1, CD300c抗原(11832-H08H、Sino Biological) (assay: binding ELISA, CD300c antigen coated at 8 ug/mL, HRP anti-Fc IgG).
B1 gave an EC50 of over 0.2 µg/mL. B2 showed an EC50 of over 0.2 µg/mL. For B3, the EC50 was over 0.2 µg/mL.

From patent JP2024517985A
